This note sets out measurements from patent US20120034228A1 (MICROMET, published 2012).

Changes are numbered by the printed parent chain. Numbers in names are those of the source.

To fix the notation:
T1: 1-27 CD3-EpCAM comprising the human 27 mer (human; cynomolgus)
T1 construct: on transfected cells
T1 chain: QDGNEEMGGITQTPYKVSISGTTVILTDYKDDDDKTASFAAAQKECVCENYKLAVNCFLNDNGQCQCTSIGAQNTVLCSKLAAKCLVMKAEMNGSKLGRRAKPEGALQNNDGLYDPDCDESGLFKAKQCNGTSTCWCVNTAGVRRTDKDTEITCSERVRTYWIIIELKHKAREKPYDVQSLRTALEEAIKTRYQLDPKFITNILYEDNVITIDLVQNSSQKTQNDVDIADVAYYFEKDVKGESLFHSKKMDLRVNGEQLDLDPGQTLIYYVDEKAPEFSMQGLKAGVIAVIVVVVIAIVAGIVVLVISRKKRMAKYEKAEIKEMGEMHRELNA

T2: 1-27 CD3-EpCAM comprising the marmoset 27 mer (Callithrix jacchus; cynomolgus)
T2 construct: on transfected cells
T2 chain: T1 chain with G9D, I10T, T13N, I25T

T3: 1-27 CD3-EpCAM comprising the squirrel monkey 27 mer (Saimiri sciureus; cynomolgus)
T3 construct: on transfected cells
T3 chain: T1 chain with M7I, G9D, I10T, T13N, I25T

B1: MCSP-G4 HLP x E2M HLP (bispecific antibody)
chain: QVQLVQSGAEVKRPGASMKVSCKASGYTFTNYYIHWVRQAPGQGLEWMGWINPNSGATNYAQKFQGRVTMTRDTSTSTVYMELSSLRSEDTAVYYCAKSWVSWFASWGQGTLVTVSSGGGGSGGGGSGGGGSELVMTQSPDSLAVSLGERATINCKSSQSVLNSSNNRNYLAWYQQKPGQPPKLLIYWASTRESGVPDRFSGSGSGTDFTLTISGLQAEDVAVYYCQQHYSTPFTFGPGTKVDIKSGGGGSEVQLLESGGGLVQPGGSLKLSCAASGFTFNGYAMNWVRQAPGKGLEWVARIRSKYNNYATYYADSVKERFTISRDDSKNTAYLQMNNLKTEDTAVYYCVRHRNFGNSYLSWFAYWGQGTLVTVSSGGGGSGGGGSGGGGSELVVTQEPSLTVSPGGTVTLTCRSSTGAVTSGYYPNWVQQKPGQAPRGLIGATDMRPSGTPARFSGSLLGGKAALTLSGVQPEDEAEYYCALWYSNRWVFGGGTKLTVL
notes: C-terminal His6 tag added
B2: 86D2HL (scFv)
scFv: EVQLLESGGGLVQPGGSLKLSCAASGFDFSTYWMSWVRQAPGKGLEWIGEINPDSSTINYTPSLKDKFIISRDNAKNTLYLQMNKVRSEDTALYYCAGGYYRYPYYYTMDYWGQGTTVTVSSGGGGSGGGGSGGGGSELVMTQSPASLSASVGETVTITCRASGNIHNYLAWYQQKQGKSPQLLVYNAKTLADGVPSRFSGSGSGTQYSLKINSLQPEDFGSYYCQHFWSTPYTFGGGTKLEIK
notes: periplasmic preparation
B3: 86C12HL (scFv)
scFv: B2 scFv with T31R, Y32S, N84S, V140Q
notes: periplasmic preparation
B4: 86E5HL (scFv)
scFv: B2 scFv with T31R, Y32S, N84S, V140Q, G164E, H167Y, N168S, D193E, G205R
notes: periplasmic preparation
B5: 86D6HL (scFv)
scFv: B2 scFv with N84T, S88P, N165S
notes: periplasmic preparation
B6: 87G9HL (scFv)
scFv: B2 scFv with T31R, N84S
notes: periplasmic preparation
B7: 86F2HL (scFv)
scFv: B2 scFv with I58V, N84T, V140Q
notes: periplasmic preparation
B8: 86F10HL (scFv)
scFv: B2 scFv with E89D, A146S
notes: periplasmic preparation
B9: 86F12HL (scFv)
scFv: B2 scFv with K19N, E89D, V140Q
notes: periplasmic preparation
B10: A2J HLP (scFv)
scFv: EVQLLESGGGLVQPGGSLKLSCAASGFTFNVYAMNWVRQAPGKGLEWVARIRSKYNNYATYYADSVKKRFTISRDDSKNTAYLQMNNLKTEDTAVYYCVRHGNFGNSYLSWWAYWGQGTLVTVSSGGGGSGGGGSGGGGSELVVTQEPSLTVSPGGTVTLTCRSSTGAVTSGYYPNWVQQKPGQAPRGLIGATDMRPSGTPARFSGSLLGGKAALTLSGVQPEDEAEYYCALWYSNRWVFGGGTKLTVL
notes: crude periplasmic preparation, Flag and His6 tags
B11: E2M HLP (scFv)
scFv: B10 scFv with V31G, K68E, G102R, W112F
notes: as for B10

T4 sequence (P07766 23-207): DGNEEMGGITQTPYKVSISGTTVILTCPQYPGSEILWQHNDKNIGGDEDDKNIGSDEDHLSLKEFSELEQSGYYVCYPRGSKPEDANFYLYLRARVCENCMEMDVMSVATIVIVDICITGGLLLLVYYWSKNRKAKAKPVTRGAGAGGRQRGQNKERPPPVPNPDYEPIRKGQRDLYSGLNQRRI

The first assay addresses T4, human CD3 (on the human CD3 positive T cell leukemia cell line HPB-ALL) (human, UniProt P07766 23-207).
T4 construct: whole, on cells; native CD3 complex on T cells; also called human CD3 epsilon
Nature of the assay: FACS on HPB-ALL.
With B1, the binding result is “binds”.

A further assay concerns the target human FAPalpha (on CHO cells) (human, UniProt Q12884 1-760). Nature of the assay: FACS on CHO cells.
Turning to B2, the binding result is recorded as “binds”.

With B3, the binding result is recorded as “binds”.

With B4, the binding result is on record as “binds”.

As for B5, the binding result is on record as “binds”.

Take B6: the binding result is recorded as “binds”.

For the molecule B7, the binding result is “binds”.

Turning to B8, the binding result is given as “binds”.

In the case of B9, the binding result is “binds”.

In the next assay the target is macaque FAPalpha (on CHO cells) (macaque (Cynomolgus)). The assay is described as follows: FACS on CHO cells.
macaque FAPalpha (on CHO cells) (macaque (Cynomolgus)), sequence (chain, as listed by the source): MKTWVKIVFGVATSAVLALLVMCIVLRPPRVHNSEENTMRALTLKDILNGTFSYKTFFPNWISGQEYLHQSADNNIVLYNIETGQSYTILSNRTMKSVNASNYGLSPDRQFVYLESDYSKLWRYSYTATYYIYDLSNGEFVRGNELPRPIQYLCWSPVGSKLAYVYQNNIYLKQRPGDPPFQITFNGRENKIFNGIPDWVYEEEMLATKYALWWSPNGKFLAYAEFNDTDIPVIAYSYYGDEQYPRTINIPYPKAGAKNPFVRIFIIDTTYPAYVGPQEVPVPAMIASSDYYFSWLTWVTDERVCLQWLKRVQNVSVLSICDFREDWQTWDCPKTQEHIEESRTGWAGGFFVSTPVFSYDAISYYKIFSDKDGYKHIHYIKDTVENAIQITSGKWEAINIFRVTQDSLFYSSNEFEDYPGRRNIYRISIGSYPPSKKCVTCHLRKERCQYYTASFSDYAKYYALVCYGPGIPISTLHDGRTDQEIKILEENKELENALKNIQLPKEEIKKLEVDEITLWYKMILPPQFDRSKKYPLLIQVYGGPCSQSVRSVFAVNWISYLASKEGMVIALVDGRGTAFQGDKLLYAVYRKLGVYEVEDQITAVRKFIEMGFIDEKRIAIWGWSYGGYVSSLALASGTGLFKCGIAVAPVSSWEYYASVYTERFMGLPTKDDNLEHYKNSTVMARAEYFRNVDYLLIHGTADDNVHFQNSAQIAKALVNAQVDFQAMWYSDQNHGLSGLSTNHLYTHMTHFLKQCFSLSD
As to B2, the binding result was “binds”.

For B3, the binding result is listed as “binds”.

For B4, the binding result is on record as “binds”.

Turning to B5, the binding result is reported as “binds”.

With B6, the binding result is “binds”.

On to B7, for which the binding result is listed as “binds”.

Regarding B8, the binding result was “binds”.

B9: the binding result is listed as “binds”.

The next assay has as its target T5, 1-27 CD3-Fc (human).
T5 construct: aa 1-27 of mature human CD3 epsilon, hinge and Fc gamma of human IgG1, His6; also called human CD3 epsilon (aa 1-27)-Fc fusion protein; 27 aa huCD3E
The assay is described as follows: ELISA on captured 1-27 CD3-Fc. Background: In an ELISA, binding on a coated surface is turned into a signal by an enzyme label.
As for B10, the binding result is on record as “binds”.

For the molecule B11, the binding result is given as “binds”.

Another assay concerns the target T1, 1-27 CD3-EpCAM comprising the human 27 …. The assay is described as follows: FACS on transfected 293-HEK cells.
Consider B11, for which the binding result is reported as “binds”.

The target of a further assay is T2, 1-27 CD3-EpCAM comprising the marmoset …. Nature of the assay: FACS on transfected 293-HEK cells.
B11: the binding result was “binds”.

In another assay the target is T3, 1-27 CD3-EpCAM comprising the squirrel …. Nature of the assay: FACS on transfected 293-HEK cells.
For the molecule B11, the binding result was “binds”.
